This is an account of results in publication PMC11745410.

In this test the target is TAX9-loaded HLA-A*02:01/β2m. The experiment in a line: SPR.

“TAPBPR^∆G24-R36 (G24-R36 deletion) (from UniProt Q9BX59 22-405) (natural protein)”: the fold decrease in KD against TAPBPR^WT (so in the source) was found to be 3 fold.

“TAPBPR^∆ALAS (A29-S32 deletion) (from UniProt Q9BX59 22-405) (natural protein)” gave a fold decrease in KD against TAPBPR^WT (so in the source) of 3 fold.
